In US20210355194A1 (TWIST BIOSCIENCE, published 2021):
Like-named read-outs stand apart in the source and are kept apart here.

B1: variant 5-20 (Fc fusion)
VHH: EVQLVESGGGLVQPGGSLRLSCAASGRTIVPYTMGWFRQAPGKERELVAAISPSAFTEYADSVKGRFTISADNSKNTAYLQMNSLKPEDTAVYYCAARRWGYDWGQGTLVTVSS
B2: variant 5-1 (Fc fusion)
VHH: EVQLVESGGGLVQPGGSLRLSCAASGGTFSSIGMGWFRQAPGKEREFVAAISWDGGATAYADSVKGRFTISADNSKNTAYLQMNSLKPEDTAVYYCAKEDVGKPFDWGQGTLVTVSS
B3: variant 6-73 (Fc fusion)
VHH: EVQLVESGGGLVQPGGSLRLSCAASGHTFSGYAMGWFRQAPGKEREFVAVITREGSTYYADSVKGRFTISADNSKNTAYLQMNSLKPEDTAVYYCARLGGEGFDYWGQGTLVTVSS
B4: variant 6-55 (Fc fusion)
VHH: EVQLVESGGGLVQPGGSLRLSCAASGFTMSSSWMGWFRQAPGKEREFVARITSGGSTGYADSVKGRFTISADNSKNTAYLQMNSLKPEDTAVYYCASVDGYFDYWGQGTLVTVSS
B5: variant 5-34 (Fc fusion)
VHH: EVQLVESGGGLVQPGGSLRLSCAASGRTFSRYIMGWFRQAPGKEREFVAAISWSGGDNTYYADSVKGRFTISADNSKNTAYLQMNSLKPEDTAVYYCAAYRIVVGGTSPGDWRWGQGTLVTVSS
B6: variant 6-63 (Fc fusion)
VHH: EVQLVESGGGLVQPGGSLRLSCAASGQTFNMGWFRQAPGKEREFVAAIGSGGSTSYADSVKGRFTISADNSKNTAYLQMNSLKPEDTAVYYCWRLGNDYFDYWGQGTLVTVSS
notes: also called VHH nanobody 6-63
B7: variant 6-85 (Fc fusion)
VHH: EVQLVESGGGLVQPGGSLRLSCAASGGTFSVFAMGWFRQAPGKEREFVSAINWSGGSLLYADSVKGRFTISADNSKNTAYLQMNSLKPEDTAVYYCALFGDFDYWGQGTLVTVSS
B8: variant 6-3 (Fc fusion)
VHH: EVQLVESGGGLVQPGGSLRLSCAASGFTFSPSWMGWFRQAPGKEREFVATINEYGGRNYADSVKGRFTISADNSKNTAYLQMNSLKPEDTAVYYCARVDRDFDYWGQGTLVTVSS
B9: variant 6-26 (Fc fusion)
VHH: EVQLVESGGGLVQPGGSLRLSCAASGDTFSTSWMGWFRQAPGKEREFVATINTGGGTNYADSVKGRFTISADNSKNTAYLQMNSLKPEDTAVYYCARVTTSFDYWGQGTLVTVSS
B10: variant 6-76 (Fc fusion)
VHH: EVQLVESGGGLVQPGGSLRLSCAASGLAFDFDGMGWFRQAPGKEREGVAAINSGGSTYYADSVKGRFTISADNSKNTAYLQMNSLKPEDTAVYYCARFFRAHDYWGQGTLVTVSS
B11: SARS-CoV-2 variant 1-27 (antibody, V domains shown)
VH: EVQLLESGGGLVQPGGSLRLSCAASGFTFSSYAMTWVRQAPGKGLEWVSAISGSGGGTYYADSVKGRFTISRDNSKNTLYLQMNSLRAEDTAVYYCASSSSWQFDYWGQGTLVTVSS
VL: QSALTQPASVSGSPGQSITISCTGTSSYVGHYNLVSWYQQHPGKAPKLMIYEGSRRPSGVSNRFSGSKSGNTASLTISGLQAEDEADYYCCSYAGSYTHYVFGGGTKLTVL
B12: variant 5-37 (Fc fusion)
VHH: EVQLVESGGGLVQPGGSLRLSCAASGSTFSINAMGWFRQAPGKEREFVGGISRSGATTNYADSVKGRFTISADNSKNTAYLQMNSLKPEDTAVYYCAADGVPEYSDYASGPVWGQGTLVTVSS
B13: variant 6-20 (Fc fusion)
VHH: EVQLVESGGGLVQPGGSLRLSCAASGSTLPYHAMGWFRQAPGKEREFVAAITWNGASTSYADSVKGRFTISADNSKNTAYLQMNSLKPEDTAVYYCARDRYYDTSASYFESETWGQGTLVTVSS
B14: SARS-CoV-2 variant 1-49 (antibody, V domains shown)
VH: EVQLLESGGGLVQPGGSLRLSCAASGFTFSSYAMYWVRQAPGKGLEWVSAISGSAGSTYYADSVKGRFTISRDNSKNTLYLQMNSLRAEDTAVYYCARDTNDFWGQGTLVTVSS
VL: QSALTQPASVSGSPGQSITISCTGTSSDIGSYNLVSWYQQHPGKAPKLMIYEGTKRPSGVSNRFSGSKSGNTASLTISGLQAEDEADYYCCSYAGSRTYVFGGGTKLTVL
B15: variant 6-78 (Fc fusion)
VHH: EVQLVESGGGLVQPGGSLRLSCAASGRTYDAMGWFRQAPGKEREFVASVTSGGYTHYADSVKGRFTISADNSKNTAYLQMNSLKPEDTAVYYCAKFGRKIVGATELDYWGQGTLVTVSS
B16: variant 6-60 (Fc fusion)
VHH: EVQLVESGGGLVQPGGSLRLSCAASGDTYGSYWMGWFRQAPGKEREFVATISQSGAATAYADSVKGRFTISADNSKNTAYLQMNSLKPEDTAVYYCAGLLRYSGTYYDAFDVWGQGTLVTVSS

Tests used:
[1] = biological target: SARS-CoV-2 spike on VSV-pseudotype SARS-CoV-2 (SARS-CoV-2, UniProt P0DTC2 14-1273); assay: cell-based or functional assay
[2] = biological target: T1, SARS-CoV-2 spike on live SARS-CoV-2 virus (SARS-CoV-2, UniProt P0DTC2 14-1273); assay: cell-based or functional assay
[3] = biological target: T1, SARS-CoV-2 spike on live SARS-CoV-2 …; assay: cell-based or functional assay; remark: listed apart in the source
[4] = biological target: T1, SARS-CoV-2 spike on live SARS-CoV-2 …; assay: cell-based or functional assay; remark: listed apart in the source
[5] = biological target: T2, COVID S1 RBD Fc fusion (Antigen 1) (SARS-CoV-2, UniProt P0DTC2 319-541); assay: phage ELISA
S1 Fc fusion protein [6] = biological target: T3, S1 Fc fusion protein (SARS-CoV-2, UniProt P0DTC2 14-685); assay: phage ELISA
[7] = biological target: T4, COVID S1 RBM Fc fusion (Antigen 2) (SARS-CoV-2, UniProt P0DTC2 437-508); assay: phage ELISA
[8] = biological target: T2, COVID S1 RBD Fc fusion (Antigen 1); assay: phage ELISA; remark: listed apart in the source
S1 Fc fusion protein [9] = biological target: T3, S1 Fc fusion protein; assay: phage ELISA; remark: listed apart in the source
[10] = biological target: T4, COVID S1 RBM Fc fusion (Antigen 2); assay: phage ELISA; remark: listed apart in the source

| Binder | NC50 [1] | EC50 [2] | PRNT90 [3] | EC80 [4] | ELISA fold over background [5] | ELISA fold over background (S1 Fc fusion protein [6]) | ELISA fold over background [7] | ELISA fold over background [8] | ELISA fold over background (S1 Fc fusion protein [9]) | ELISA fold over background [10] |
| --- | --- | --- | --- | --- | --- | --- | --- | --- | --- | --- |
| B1 | 0.27 µg/mL | 0.27 µg/mL | 3.9 ng/mL | 0.376 µg/mL |  |  |  |  |  |  |
| B2 | 0.1 µg/mL | 0.1 µg/mL | 15.6 ng/mL | 0.811 µg/mL |  |  |  |  |  |  |
| B3 | 1.46 µg/mL | 1.46 µg/mL | 250 ng/mL | 2.02 µg/mL |  |  |  |  |  |  |
| B4 | 0.21 µg/mL | 0.21 µg/mL | 62.5 ng/mL | 0.445 µg/mL |  |  |  |  |  |  |
| B5 | 0.54 µg/mL | 0.54 µg/mL | 15.6 ng/mL | 0.57 µg/mL |  |  |  |  |  |  |
| B6 | 0.06 µg/mL | 0.06 µg/mL | 3.9 ng/mL | 0.0579 µg/mL |  |  |  |  |  |  |
| B7 | 0.84 µg/mL | 0.84 µg/mL | 62.5 ng/mL | 1.06 µg/mL |  |  |  |  |  |  |
| B8 | 0.06 µg/mL | 0.06 µg/mL | < 0.98 ng/mL | 0.115 µg/mL |  |  |  |  |  |  |
| B9 | 2.97 µg/mL | 2.97 µg/mL | 62.5 ng/mL | 3.61 µg/mL |  |  |  |  |  |  |
| B10 | 1.08 µg/mL | 1.08 µg/mL | 3.9 ng/mL | 0.426 µg/mL |  |  |  |  |  |  |
| B11 |  |  |  |  | 1.9 fold | 1.3 fold | 1.6 fold | 1.9 fold | 1.3 fold | 1.6 fold |
| B12 |  |  |  | 12.4 µg/mL |  |  |  |  |  |  |
| B13 | 5.03 µg/mL | 5.03 µg/mL | 15.6 ng/mL | 2.31 µg/mL |  |  |  |  |  |  |
| B14 |  |  |  |  |  | 0.8 fold | 0.8 fold |  | 0.8 fold | 0.8 fold |
| B15 | 8.26 µg/mL | 8.26 µg/mL | 250 ng/mL | 13.8 µg/mL |  |  |  |  |  |  |
| B16 | 0.15 µg/mL | 0.15 µg/mL | < 0.98 ng/mL | 0.237 µg/mL |  |  |  |  |  |  |
